What was measured:
[1] = biological target: T1, GST-Arx (286-430) (UniProt O35085 286-430); assay: EMSA
[2] = biological target: T1, GST-Arx (286-430); assay: competition
[3] = biological target: T1, GST-Arx (286-430); assay: EMSA; remark: listed apart in the source

T1 sequence (O35085 286-430): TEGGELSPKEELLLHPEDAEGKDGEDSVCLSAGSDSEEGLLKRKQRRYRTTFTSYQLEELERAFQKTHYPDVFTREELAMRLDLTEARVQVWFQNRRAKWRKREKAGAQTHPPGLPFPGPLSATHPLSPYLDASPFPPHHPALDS

Binder	binding result [1]	binding result [2]	further results
Shox2 probe (dsDNA) DNA 1: GCAAAATCCACGCTTAATTAAATTAATTAGGGA DNA 2: GTCCCTAATTAATTTAATTAAGCGTGGATTTTG	binds		
Lmo1 probe (dsDNA) DNA 1: GTAATGAATTGATTTAATTAACAGGGGAGTCTGA DNA 2: GTCAGACTCCCCTGTTAATTAAATCAATTCATTA	binds		
Lmo1mut1 (dsDNA) DNA 1: GTAATGAATTGATTTCCTTAACAGGGGAGTCTGA DNA 2: GTCAGACTCCCCTGTTAAGGAAATCAATTCATTA		no binding	
Lmo1mut2 (dsDNA) DNA 1: GTAATGAACCGATTTAATTAACAGGGGAGTCTGA DNA 2: GTCAGACTCCCCTGTTAATTAAATCGGTTCATTA		binds	
Ebf3 probe (dsDNA) DNA 1: GCGATTTTCCCGATTAATTAAAATATTAACGCA DNA 2: GTGCGTTAATATTTTAATTAATCGGGAAAATCG			binding result [3]: binds

Reference: paper PMC2581427
